Laboratory results: US20240109958A1

Target: internal GGX peptides (genome-encoded GGX sequences exposed by trypsin digestion of HEK293 lysate)
Assay: immunoaffinity enrichment from trypsin-digested HEK293 lysate, LC-MS/MS; count of internal GGX sequences enriched

Row | Shared sequences [sequences] | Unique sequences [sequences] | Binder
1 | 8 | 8 | anti-GGX monoclonal antibody 2B12 (rabbit IgG) (antibody, V domains shown) VH: QSVEESGGGLVTPGGALTLTCTASGFSLNRHWMNWVRQAPGKGLEWIGAINESGRTYYATWAKGRFFISKTTTTVDLKITSPTTADTATYFCVRDDDVSNFWGPGTLVTVSS VL: DPMLTQTPSSVSAAVGGTVSINCQSTKSVYKYNHLSWYQQKPGQPPKQLIFPASTLQSGVPSRFSGSGSGTQFTLTISDVQCDDAATYYCLGLYDCRSGDCNVFGGGTKLEIKG
2 | 14 | 41 | anti-GGX monoclonal antibody 2E9 (rabbit IgG) (antibody, V domains shown) VH: QKQLMESGGRLVTPGTPLTLTCKVSGFSLSSYYMNWVRQAPGKGLEWIGIMFPNGKIYYATWAKGRFTISKTSTTVDLKIISPTTEDTATYFCTGDDSGDVNIWGPGTLVTVSS VL: DIVLTQTASPVSAAVGGTVTINCQSSQSVYTNNRLAWYQQKPGQPAKEMIYGASTLPSGVSSRFKGSGSGTQFALTISDVQCDDAATYYCLGEFDCTSADCFVFGGGTEVVVKG
3 | 20 | 47 | anti-GGX monoclonal antibody 2H2 (rabbit IgG) (antibody, V domains shown) VH: QSVEESRGRLVTPGTPLTLTCKVSGFSLSSYYMNWVRQAPGKGLEWIGIMFPNGKIYYATWAKGRFTISKTSTTVDLKIISPTTEDTATYFCTGDDSGDVNIWGPGTLVTVSS VL: DPMLTQTASPVSAAVGGTVTINCQSSQSVYSNNRLAWYQQKPGQPPKEMIYGASTLPSGVSSRFKGSGSGTQFTLTISDVQCDDAATYYCLGTYDCLSADCLAFGGGTEVVVKG
